{
  "source": "patent US20220009987A9",
  "about": "“HUMAN RESISTIN COMPOSITIONS AND METHODS OF TREATING TLR4-MEDIATED DISEASE AND INFECTION” (THE REGENTS OF THE UNIVERSITY OF CALIFORNIA, priority 2017, published 2022)",
  "molecules": {"B1": {"name": "hRetn: human resistin protein (hRetn) having an amino acid sequence of SEQ ID NO: 1; recombinant, E. coli-derived or 293T cell-derived (protein, listed as Homo sapiens)", "chain": "MKALCLLLLPVLGLLVSSKTLCSMEEAINERIQEVAGSLIFRAISSIGLECQSVTSRGDLATCPRGFAVTGCTCGSACGSWDVRAETTCHCQCAGMDWTGARCCRVQP"}},
  "key": {"C57BL/6 mice": {"system": "C57BL/6 mice", "experiment": "LPS-induced endotoxic shock model with recombinant hRetn treatment", "type": "in vivo, mouse", "conditions": "for survival after LPS injection: 0.5 μg hRetn i.p. prior to LPS, vs PBS control", "source_text": "Mice. Human resistin transgenic mice were generated on a mouse Retn−/− background as previously described in Park et al., 2011, “Inflammatory induction of human resistin causes insulin resistance in endotoxemic mice,” Diabetes 60(3):775-783, the entire content of which is herein incorporated by reference. Briefly, the human resistin gene, along with 21,300 bp upstream and 4,248 bp downstream of the human resistin start site were inserted through a bacterial artificial chromosome (BAC). Genome insertion of hRETN in the two transgenic mouse lines was determined by Dartmouse™, which sequences and analyzes thousands of SNPs throughout the mouse genome. For the endotoxic shock model, mice were injected i.p. with two doses of LPS (Sigma): 0.05 mg/kg LPS followed by 12 mg/kg LPS (females) or 20 mg/kg LPS (males) 12 hours later. Mice were monitored at least twice a day and euthanized according to humane endpoints. For treatment with recombinant resistin, C57BL/6 mice were injected i.p. with PBS or 0.5 μg hRetn (Peprotech). Nippostrongylus brasiliensis life cycle was maintained in Sprague-Dawley rats, as previously described in Jang et al., 2015, “Macrophage-derived human resistin is induced in multiple helminth infections and promotes inflammatory monocytes and increased parasite burden,” PLoS Pathog 11(1):e1004579, the entire content of which is herein incorporated by reference. Mice were anesthetized with isoflurane and injected subcutaneously with 500 L3 larvae. Serum collection was by retro-orbital bleeding and body temperature was measured by rectal thermometer (Braintree Scientific). All animals in the experiment were age-matched (6-8 week old), gender-matched and housed in a specific pathogen free facility.\nVascular Permeability Assay. Evan's blue dye was used to measure vascular permeability. Mice were anesthetized by isoflurane and 200 μL of 0.5% Evan's Blue dye in PBS was injected reto-orbitally. After 10 minutes, mice were euthanized by CO2 and perfused with 20 mL PBS. Tissue was excised, weighed and incubated with 500 μL N, N-dimethylformamide (Sigma) for 24 hours at 55° C. Extracted Evan's blue was measured at 610 nm according to a standard curve.\nBinding Assay and Flow Cytometry. Single cell suspension of lung tissue was prepared and hRetn binding was measured as previously described in Jang et al., 2015, supra. Briefly, dissociated lung cells were incubated for 1 hour at 4° C. with 0.5 μg recombinant hResistin (Peprotech) or PBS, followed by 2× wash in FACS buffer, incubation with Fc block (5 μg/mL αCD16/32 and 10 μg/mL purified rat IgG1, 5 min at 4° C.). Cells were stained with biotinylated α-hRetn (Peprotech, 30 min at 4° C.) followed by detection with BV605-conjugated streptavidin (BD) and surface marker antibodies. To collect peritoneal exudate cells (PECs), the peritoneal cavity was washed and PECs recovered in 5 mL ice cold PBS. Surface marker antibodies were: F4/80 (clone A3-1), SiglecF (clone E50-2440), CD4 (clone RM4-5), Ly6C (HK1.4), CD11b (clone M1/70), CD11c (clone N418), Ly6G (clone 1A8), MHCII (clone M5/114.15.2) and CD3e (clone 145-2C11), CD115 (clone AFS98), purchased from Affymetrix, BD Biosciences or Biolegend. Cell populations were determined as follows: peritoneal macrophage (F4/80+CD11b+), neutrophils (Ly6G+CD11b+), eosinophils (SiglecF+CD11c−) and monocyte (Ly6C+CD11b+), alveolar macrophages (F4/80+CD11c+). For flow cytometric analysis, all samples were run on the BD LSRII and analyzed on FlowJo (v10).\nCytokine Quantification. Sandwich ELISAs were performed using capture and biotinylated antibodies for human resistin (Peprotech), IL-10 and TNFα (BD Biosciences) according to manufacturer's instructions. Detection was performed with streptavidin-peroxidase (Jackson ImmunoResearch) and TMB peroxidase substrate (BD Biosciences), followed by addition of 2N H2SO4. Optical density (OD) was captured at 450 nm. Samples were compared to serial-fold dilution of recombinant protein. […]"}, "human TLR4": {"target": "human TLR4 (Homo sapiens, UniProt O00206)", "sequence (O00206 24-839)": "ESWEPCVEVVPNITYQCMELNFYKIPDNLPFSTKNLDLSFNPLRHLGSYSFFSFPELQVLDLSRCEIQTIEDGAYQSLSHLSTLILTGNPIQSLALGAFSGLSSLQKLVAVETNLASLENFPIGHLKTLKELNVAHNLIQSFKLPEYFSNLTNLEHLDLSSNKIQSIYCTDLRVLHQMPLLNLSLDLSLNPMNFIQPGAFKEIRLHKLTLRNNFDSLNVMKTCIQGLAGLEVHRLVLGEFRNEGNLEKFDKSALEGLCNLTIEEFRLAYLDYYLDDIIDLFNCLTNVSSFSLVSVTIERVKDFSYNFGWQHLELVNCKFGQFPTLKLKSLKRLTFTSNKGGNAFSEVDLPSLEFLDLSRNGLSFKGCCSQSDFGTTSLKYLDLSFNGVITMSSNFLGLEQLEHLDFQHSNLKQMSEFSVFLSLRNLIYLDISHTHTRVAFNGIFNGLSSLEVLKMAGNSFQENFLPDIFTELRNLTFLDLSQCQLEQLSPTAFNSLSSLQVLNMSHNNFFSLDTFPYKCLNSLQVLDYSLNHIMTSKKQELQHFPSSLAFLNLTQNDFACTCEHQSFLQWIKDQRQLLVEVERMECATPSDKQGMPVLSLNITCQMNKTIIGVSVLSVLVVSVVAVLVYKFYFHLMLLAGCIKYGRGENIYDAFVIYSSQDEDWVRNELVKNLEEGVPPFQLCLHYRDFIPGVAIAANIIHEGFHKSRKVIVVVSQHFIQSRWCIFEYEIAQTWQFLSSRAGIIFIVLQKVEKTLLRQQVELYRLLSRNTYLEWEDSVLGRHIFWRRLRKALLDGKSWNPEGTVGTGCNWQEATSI", "experiment": "Pull-down assay with His-tagged human TLR4", "type": "binding", "conditions": "nickel-NTA agarose beads, anti-hRetn blot", "procedure": "Pull-down Assay. 1 μg/ml protein His-tagged MBP, human TLR4 and human CAP1 were added to nickel-nitrilotriacetic acid-agarose beads (Invitrogen) in binding buffer (50 mM NaH2PO4, 500 mM NaCl, 10 mM Imidazole, pH 8.0) and mixed for 1 hour at 4° C., followed by washing and 1 h incubation at 4° C. with hRetn (E. coli-derived, Peprotech or 293T cell-derived, LifeSpan Biosciences) in binding buffer. Beads were washed in wash buffer (50 mM NaH2PO4, 500 mM NaCl, 20 mM Imidazole, pH 8.0), and complex protein eluted with elution buffer (50 mM NaH2PO4, 500 mM NaCl, 250 mM Imidazole, pH 6.0). His-MBP, His-TLR4 and His-CAP1 were detected by anti-His antibody (Abcam), and hRetn was detected by anti-hRetn antibody (donated by Mitchell Lazar) by Western Blot. For the N-peptide binding experiment, 1 μg/ml His-tagged human TLR4 with 500 ng/ml N-peptide or 10% TFE control was added to the beads in binding buffer and mixed for 30 min at 4° C., followed by co-immunoprecipitation using 1 μg/ml Flag-hRetn (LifeSpan Biosciences), anti-His or anti-Flag (Sigma)."}, "CD14+CD11b+ monocytes": {"system": "CD14+CD11b+ monocytes", "experiment": "Competitive resistin/LPS binding assay on human PBMCs (flow cytometry)", "type": "cell-based", "conditions": "for LPS binding to CD14+CD11b+ monocytes: pre-incubation before LPS-biotin, on ice", "procedure": "Human PBMCs. Human buffy coat was purchased from Zen-bio. Buffy coat was overlaid on top of Histopaque-1077 and spun at 700g at 25° C. with no brake and PBMCs were recovered from the interphase. PBMCs were plated in 96-well plates and stimulated with mammalian-derived human resistin (1 μg/mL, LifeSpan Biosciences) or hRetn N-peptide (1 μg/mL). After 24 hours, ultrapure LPS (100 ng/mL, Invivogen) was added and supernatants recovered for ELISA at 24 hours. Where indicated, cells were incubated for 4 hours with STAT3 (5, 15-DPP, 50 μM) or TBK1 (BX-795, 1 μM) inhibitors prior to hRetn treatment. For the hRetn competitive binding assay, 1×10^6 cells were incubated with recombinant hRetn (0.5 μg), washed in PBS then incubated with 0.5 μg LPS-biotin (incubations were 30 minutes on ice). Cells were washed in FACS buffer, treated with Fc block, and stained with BV605-conjugated streptavidin and α-human primary antibodies: CD14 (clone M5E2), CD11 b (clone M1/70) and MD2/TLR4 (clone HTA125) purchased from Affymetrix."}, "[1]": {"conditions": "peritoneal exudate cells, flow cytometry"}},
  "note": "“Also recorded” adds a separate entry of the source.",
  "data": [
    {"molecule": "B1", "values": [
      {"measurement": "survival after LPS injection", "setting": "C57BL/6 mice; listed as recombinant hRetn", "value": "protected C57BL/6 mice against LPS-induced mortality; also recorded: resistant to LPS-induced mortality"},
      {"measurement": "survival after LPS injection", "setting": "C57BL/6 mice; listed as recombinant hRetn protein", "value": "protected against an otherwise lethal dose of LPS"},
      {"measurement": "IFNγ level", "setting": "C57BL/6 mice; 6 hours after LPS", "value": "significant reduction"},
      {"measurement": "IL-6 level", "setting": "C57BL/6 mice; 6 hours after LPS", "value": "significant reduction"},
      {"measurement": "IL-10 expression", "setting": "C57BL/6 mice; 6 hours after LPS", "value": "no change"},
      {"measurement": "TNFα level", "setting": "C57BL/6 mice; 6 hours after LPS", "value": "significant reduction"},
      {"measurement": "lung vascular permeability (Evan's blue dye)", "setting": "C57BL/6 mice; 6 hours after LPS", "value": "significantly reduced LPS-induced vascular permeability"},
      {"measurement": "rectal body temperature (LPS-induced temperature drop)", "setting": "C57BL/6 mice; 6 hours after LPS", "value": "modest protection from the LPS-induced temperature drop"},
      {"measurement": "LPS-induced neutrophils in the peritoneal cavity", "setting": "C57BL/6 mice; [1]", "value": "significantly reduced LPS-induced neutrophils in the peritoneal cavity"},
      {"measurement": "monocytes in the peritoneal cavity", "setting": "C57BL/6 mice; [1]", "value": "increased monocytes"},
      {"measurement": "hRetn in pull-down elution with his-TLR4 (Western blot)", "setting": "human TLR4", "value": "only present in the elution with his-TLR4"},
      {"measurement": "hRetn in pull-down elution with his-TLR4 (Western blot)", "setting": "human TLR4; listed as mammalian-derived hRetn", "value": "only detected when pulled down with his-TLR4"},
      {"measurement": "cell population binding hRetn in human PBMC", "setting": "CD14+CD11b+ monocytes; flow cytometry", "value": "CD11b+CD14+ monocytes were the dominant population that bound hRetn"},
      {"measurement": "LPS-promoted surface MD2/TLR4 complex formation", "setting": "CD14+CD11b+ monocytes; human PBMC, flow cytometry", "value": "abrogated"},
      {"measurement": "LPS binding to CD14+CD11b+ monocytes", "setting": "CD14+CD11b+ monocytes", "value": "significantly abrogated"},
      {"measurement": "LPS binding to CD14+CD11b+ monocytes", "setting": "CD14+CD11b+ monocytes; listed as full-length hRetn", "value": "inhibited LPS binding"}
    ]}
  ]
}
